Data set [1] has as its system HeLa Kyoto. The data set is described as follows: solubility in G1/S (NP-40 vs SDS abundance) (log2 ratio); higher = more soluble. As to conditions: cell cycle stage: G1/S.
Data set [2] deals with HeLa Kyoto. The experiment in a line: thermal stability score vs G1/S (z-score of summed log2 fold changes over temperatures); higher = more thermally stable than in G1/S.
Data set [3] has as its system HeLa Kyoto. The data set is described as follows: melting temperature (median over replicates), in situ; higher = more thermally stable.
Data set [4] has as its system HeLa Kyoto. The experiment in a line: solubility change mitosis vs G1/S (difference of NP-40 vs SDS log2 ratios) (log2 ratio difference); higher = more soluble in mitosis.
Setting [5] is: cell cycle stage: early G1 (4.5 h after nocodazole release).
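Throughout, for melting temperature (median over replicates), in situ: HeLa Kyoto cells synchronized by double thymidine or nocodazole block, proteins quantified by TMT10plex mass spectrometry, three independent biological replicates.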
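Throughout, for solubility change mitosis vs G1/S (difference of NP-40 vs SDS log2 ratios): synchronized HeLa Kyoto cells (double thymidine block for G1/S, nocodazole release for mitosis), protein amounts in NP-40 versus SDS lysates quantified by mass spectrometry, three biological replicates.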
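Throughout, for solubility in G1/S (NP-40 vs SDS abundance): HeLa Kyoto cells arrested at G1/S by double thymidine block, proteins quantified by TMT10plex mass spectrometry in mild NP-40 versus SDS extracts, three biological replicates.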
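Throughout, for thermal stability score vs G1/S (z-score of summed log2 fold changes over temperatures): synchronized HeLa Kyoto cells, proteins quantified by TMT10plex mass spectrometry, three biological replicates, mitosis taken 0.5 h after nocodazole release, G1/S directly after double thymidine block.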

As for “MAMARLGSWLGEAQWLALVSLFVAALATVGLYLAQWALARARPQPQRRAVEPGEGPRPGSDALLSWILTLGSWRSQWQAAWVTALNEEAERKGGPPFLSFEEDPRQQALELVVQEVSSVLRSAEEKVVVCHVVGQAIQFLVSETPALGAGCRLYDMRLSPFHLQLEFHMKEKREDLQISWSFISVPEMAVNIQPKALGEDQVAETSAMSDVLKDILKHLAGSASPSVVLITKPTTVKEAQNLQCAASTAQESCPPKPPRAHELKLLVRNIHVLLLSEPGASGHINAVCVVQLNDPVQRFSSTLTKNTPDLMWEEEFTFELNAKSKELHLQISEAGRSSEGLLATATVPLDLFKKQPSGPQSFTLTSGSACGSSVLGSVTAEFSYMEPGELKSWPIPPPVPAAKIEKDRTVMPCGTVVTTVTAVKTKPRVDVGRASPLSSDSPVKTPIKVKVIEKDISVQAIACRSAPVSKTLSSSDTELLVLNGSDPVAEVAIRQLSESSKLKLKSPRKKSTIIISGISKTSLSQDHDAALMQGYTASVDSTHQEDAPSHPERAAASAPPEEAESAQASLAPKPQEDELDSWDLEKEPQAAAWSSQVLLDPDGDELSESSMSVLEPGTAKKHKGGILRKGAKLFFRRRHQQKDPGMSQSHNDLVFLEQPEGSRRKGITLTRILNKKLLSRHRNKNTMNGAPVEPCT [C2CD2]”, the “solubility in G1/S (log2)” value with HeLa Kyoto [1] turned out to be 0.0136. The values for the thermal stability score in the data set with HeLa Kyoto [2] (setting [5]) and in the data set with HeLa Kyoto [2] (cell cycle stage: mitosis) were 0.427 and 1.24, respectively. The sequence further registered a melting temperature with HeLa Kyoto [3] (cell cycle stage: G1/S) of 50.9 °C. Moreover, the “solubility change mitosis (log2)” value in the data set on HeLa Kyoto [4] amounted to 0.0576.
With “MAMGLFRVCLVVVTAIINHPLLFPRENATVPENEEEIIRKMQAHQEKLQLEQLRLEEEVARLAAEKEALEQVAEEGRQQNETRVAWDLWSTLCMILFLMIEVWRQDHQEGPSPECLGGEEDELPGLGGAPLQGLTLPNKATLGHFYERCIRGATADAARTREFLEGFVDDLLEALRSLCNRDTDMEVEDFIGVDSMYENWQVDRPLLCHLFVPFTPPEPYRFHPELWCSGRSVPLDRQGYGQIKVVRADGDTLSCICGKTKLGEDMLCLLHGRNSMAPPCGDMENLLCATDSLYLDTMQVMKWFQTALTRAWKGIAHKYEFDLAFGQLDSPGSLKIKFRSGKFMPFNLIPVIQCDDSDLYFVSHLPREPSEGTPASSTDWLLSFAVYERHFLRTTLKALPEGACHLSCLQIASFLLSKQSRLTGPSGLSSYHLKTALLHLLLLRQAADWKAGQLDARLHELLCFLEKSLLQKKLHHFFIGNRKVPEAMGLPEAVLRAEPLNLFRPFVLQRSLYRKTLDSFYEMLKNAPALISEYSLHVPSDQPTPKS [ITPRIP]”, the “solubility in G1/S (log2)” value in the data set on HeLa Kyoto [1] was found to be 0.169. Also, the results for the thermal stability score in the data set on HeLa Kyoto [2] (setting [5]) and in the data set on HeLa Kyoto [2] (cell cycle stage: mitosis) were -0.0632 and -0.00908, respectively. Also, the melting temperature in the data set with HeLa Kyoto [3] (cell cycle stage: G1/S) was determined as 52 °C. Also, the “solubility change mitosis (log2)” value in the data set on HeLa Kyoto [4] is -0.1.
With “MAMLRVQPEAQAKVDVFREDLCTKTENLLGSYFPKKISELDAFLKEPALNEANLSNLKAPLDIPVPDPVKEKEKEERKKQQEKEDKDEKKKGEDEDKGPPCGPVNCNEKIVVLLQRLKPEIKDVIEQLNLVTTWLQLQIPRIEDGNNFGVAVQEKVFELMTSLHTKLEGFHTQISKYFSERGDAVTKAAKQPHVGDYRQLVHELDEAEYRDIRLMVMEIRNAYAVLYDIILKNFEKLKKPRGETKGMIY [PSME1]”, the “solubility in G1/S (log2)” value with HeLa Kyoto [1] came out at 0.819. Moreover, the thermal stability score is -2.91 with HeLa Kyoto [2] (setting [5]) and -1.23 in the data set with HeLa Kyoto [2] (cell cycle stage: mitosis). Also, the melting temperature with HeLa Kyoto [3] (cell cycle stage: G1/S) was 52.4 °C; in the data set with HeLa Kyoto [3] (cell cycle stage: mitosis), 53.8 °C. In the data set with HeLa Kyoto [4], the “solubility change mitosis (log2)” value came out at 0.0323.
For “MAMQAAKRANIRLPPEVNRILYIRNLPYKITAEEMYDIFGKYGPIRQIRVGNTPETRGTAYVVYEDIFDAKNACDHLSGFNVCNRYLVVLYYNANRAFQKMDTKKKEEQLKLLKEKYGINTDPPK [SF3B6]”, the “solubility in G1/S (log2)” value in the data set on HeLa Kyoto [1] is -0.381. In addition, the thermal stability score with HeLa Kyoto [2] (setting [5]) is -2.41; in the data set on HeLa Kyoto [2] (cell cycle stage: mitosis) it was -2.34. In addition, the melting temperature in the data set with HeLa Kyoto [3] (cell cycle stage: G1/S) turned out to be 51.1 °C; in the data set on HeLa Kyoto [3] (cell cycle stage: mitosis), 51.2 °C. Besides, the “solubility change mitosis (log2)” value in the data set with HeLa Kyoto [4] was 0.618.
Take “MAMRQTPLTCSGHTRPVVDLAFSGITPYGYFLISACKDGKPMLRQGDTGDWIGTFLGHKGAVWGATLNKDATKAATAAADFTAKVWDAVSGDELMTLAHKHIVKTVDFTQDSNYLLTGGQDKLLRIYDLNKPEAEPKEISGHTSGIKKALWCSEDKQILSADDKTVRLWDHATMTEVKSLNFNMSVSSMEYIPEGEILVITYGRSIAFHSAVSLDPIKSFEAPATINSASLHPEKEFLVAGGEDFKLYKYDYNSGEELESYKGHFGPIHCVRFSPDGELYASGSEDGTLRLWQTVVGKTYGLWKCVLPEEDSGELAKPKIGFPETTEEELEEIASENSDCIFPSAPDVKA [STRAP]”: in the data set with HeLa Kyoto [1], the “solubility in G1/S (log2)” value amounted to 0.14. For the same sequence, the thermal stability score in the data set with HeLa Kyoto [2] (setting [5]) was -1.2; in the data set with HeLa Kyoto [2] (cell cycle stage: mitosis) it was -3.1. The melting temperature came out at 52.3 °C in the data set with HeLa Kyoto [3] (cell cycle stage: G1/S) and 52.2 °C in the data set on HeLa Kyoto [3] (cell cycle stage: mitosis). The “solubility change mitosis (log2)” value with HeLa Kyoto [4] was -0.127.
Turning to “MAMVSEFLKQAWFIENEEQEYVQTVKSSKGGPGSAVSPYPTFNPSSDVAALHKAIMVKGVDEATIIDILTKRNNAQRQQIKAAYLQETGKPLDETLKKALTGHLEEVVLALLKTPAQFDADELRAAMKGLGTDEDTLIEILASRTNKEIRDINRVYREELKRDLAKDITSDTSGDFRNALLSLAKGDRSEDFGVNEDLADSDARALYEAGERRKGTDVNVFNTILTTRSYPQLRRVFQKYTKYSKHDMNKVLDLELKGDIEKCLTAIVKCATSKPAFFAEKLHQAMKGVGTRHKALIRIMVSRSEIDMNDIKAFYQKMYGISLCQAILDETKGDYEKILVALCGGN [ANXA1]”, in the data set with HeLa Kyoto [1], the “solubility in G1/S (log2)” value stood at 0.618. Further, the thermal stability score in the data set with HeLa Kyoto [2] (setting [5]) is 3.41; with HeLa Kyoto [2] (cell cycle stage: mitosis), 3.05. Further, the melting temperature with HeLa Kyoto [3] (cell cycle stage: G1/S) was 49.1 °C; in the data set on HeLa Kyoto [3] (cell cycle stage: mitosis), 49.6 °C. In addition, the “solubility change mitosis (log2)” value with HeLa Kyoto [4] was determined as 0.0587.
On to “MAMVTGGWGGPGGDTNGVDKAGGYPRAAEDDSASPPGAASDAEPGDEERPGLQVDCVVCGDKSSGKHYGVFTCEGCKSFFKRSIRRNLSYTCRSNRDCQIDQHHRNQCQYCRLKKCFRVGMRKEAVQRGRIPHSLPGAVAASSGSPPGSALAAVASGGDLFPGQPVSELIAQLLRAEPYPAAAGRFGAGGGAAGAVLGIDNVCELAARLLFSTVEWARHAPFFPELPVADQVALLRLSWSELFVLNAAQAALPLHTAPLLAAAGLHAAPMAAERAVAFMDQVRAFQEQVDKLGRLQVDSAEYGCLKAIALFTPDACGLSDPAHVESLQEKAQVALTEYVRAQYPSQPQRFGRLLLRLPALRAVPASLISQLFFMRLVGKTPIETLIRDMLLSGSTFNWPYGSGQ [NR2F6]”, for which the “solubility in G1/S (log2)” value in the data set on HeLa Kyoto [1] came to 0.0616. The thermal stability score amounted to 0.278 in the data set with HeLa Kyoto [2] (setting [5]) and 0.498 in the data set on HeLa Kyoto [2] (cell cycle stage: mitosis). Further, the melting temperature in the data set on HeLa Kyoto [3] (cell cycle stage: G1/S) turned out to be 53.1 °C; with HeLa Kyoto [3] (cell cycle stage: mitosis) it was 50.3 °C. Further, the “solubility change mitosis (log2)” value in the data set on HeLa Kyoto [4] is -0.047.

Values taken from the supplement of paper PMC5998384.
